Measured values from US20110118181A1 (INSTITUT DE RECHERHES CLINIQUES DE MONTREAL, published 2011).

target: T1, PCSK9-V5 (full-length human PCSK9 with C-terminal V5 tag) (human, UniProt Q8NBP7 31-692); assay: Far Western blot of HEK293 lysates
T1 construct: Used as conditioned medium of CHO-K1 cells (Far Western, pull-down) or co-expressed in cells (co-IP); The background says PCSK9 is secreted as a prosegment-PCSK9 heterodimer; also called full-length (FL) PCSK9-V5; native PCSK9; not shown: C-terminal V5 tag
T1 sequence (Q8NBP7 31-692 limits assumed): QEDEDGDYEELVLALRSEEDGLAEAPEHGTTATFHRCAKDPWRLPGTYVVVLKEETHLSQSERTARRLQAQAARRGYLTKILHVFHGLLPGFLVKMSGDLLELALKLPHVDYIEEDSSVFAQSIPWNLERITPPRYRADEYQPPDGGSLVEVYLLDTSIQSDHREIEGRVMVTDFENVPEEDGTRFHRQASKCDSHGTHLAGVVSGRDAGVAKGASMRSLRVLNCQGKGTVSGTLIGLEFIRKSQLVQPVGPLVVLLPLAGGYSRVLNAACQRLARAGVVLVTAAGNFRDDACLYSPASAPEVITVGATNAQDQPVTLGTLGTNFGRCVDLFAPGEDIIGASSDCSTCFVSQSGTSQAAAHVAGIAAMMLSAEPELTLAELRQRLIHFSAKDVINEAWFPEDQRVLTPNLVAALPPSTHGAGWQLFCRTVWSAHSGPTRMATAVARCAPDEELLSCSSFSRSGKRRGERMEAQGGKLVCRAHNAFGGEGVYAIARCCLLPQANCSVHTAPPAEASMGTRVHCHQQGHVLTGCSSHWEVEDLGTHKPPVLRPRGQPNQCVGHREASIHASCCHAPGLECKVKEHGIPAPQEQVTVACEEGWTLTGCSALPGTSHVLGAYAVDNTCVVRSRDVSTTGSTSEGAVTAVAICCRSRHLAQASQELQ

Binder	binding result
AnxA2 77RRTKK>AATAA (HA-tagged) (other, also called 77AATAA81) MSTVHEILCKLSLEGDHSTPPSAYGSVKAYTNFDAERDALNIETAIKTKGVDEVTIVNILTNRSNAQRQDIAFAYQAATAAELASALKSALSGHLETVILGLLKTPAQYDASELKASMKGLGTDEDSLIEIICSRTNQELQEINRVYKEMYKTDLEKDIISDTSGDFRKLMVALAKGRRAEDGSVIDYELIDQDARDLYDAGVKRKGTDVPKWISIMTERSVPHLQKVFDRYKSYSPYDMLESIRKEVKGDLENAFLNLVQCIQNKPLYFADRLYDSMKGKGTRDKVLIRIMVSRSEVDMLKIRSEFKRKYGKSLYYYIQQDTKGDYQKALLYLCGGDDYPYDVPDYA	no binding
AnxA2 Δ37-48-HA (other) MSTVHEILCKLSLEGDHSTPPSAYGSVKAYTNFDAEKGVDEVTIVNILTNRSNAQRQDIAFAYQRRTKKELASALKSALSGHLETVILGLLKTPAQYDASELKASMKGLGTDEDSLIEIICSRTNQELQEINRVYKEMYKTDLEKDIISDTSGDFRKLMVALAKGRRAEDGSVIDYELIDQDARDLYDAGVKRKGTDVPKWISIMTERSVPHLQKVFDRYKSYSPYDMLESIRKEVKGDLENAFLNLVQCIQNKPLYFADRLYDSMKGKGTRDKVLIRIMVSRSEVDMLKIRSEFKRKYGKSLYYYIQQDTKGDYQKALLYLCGGDDYPYDVPDYA	no binding
AnxA2 77RRTKK>AATAK (HA-tagged) (other, also called 77AATAK81) MSTVHEILCKLSLEGDHSTPPSAYGSVKAYTNFDAERDALNIETAIKTKGVDEVTIVNILTNRSNAQRQDIAFAYQAATAKELASALKSALSGHLETVILGLLKTPAQYDASELKASMKGLGTDEDSLIEIICSRTNQELQEINRVYKEMYKTDLEKDIISDTSGDFRKLMVALAKGRRAEDGSVIDYELIDQDARDLYDAGVKRKGTDVPKWISIMTERSVPHLQKVFDRYKSYSPYDMLESIRKEVKGDLENAFLNLVQCIQNKPLYFADRLYDSMKGKGTRDKVLIRIMVSRSEVDMLKIRSEFKRKYGKSLYYYIQQDTKGDYQKALLYLCGGDDYPYDVPDYA	no binding
AnxA2 77…>77AATAAELASALA (HA-tagged) (other) MSTVHEILCKLSLEGDHSTPPSAYGSVKAYTNFDAERDALNIETAIKTKGVDEVTIVNILTNRSNAQRQDIAFAYQAATAAELASALASALSGHLETVILGLLKTPAQYDASELKASMKGLGTDEDSLIEIICSRTNQELQEINRVYKEMYKTDLEKDIISDTSGDFRKLMVALAKGRRAEDGSVIDYELIDQDARDLYDAGVKRKGTDVPKWISIMTERSVPHLQKVFDRYKSYSPYDMLESIRKEVKGDLENAFLNLVQCIQNKPLYFADRLYDSMKGKGTRDKVLIRIMVSRSEVDMLKIRSEFKRKYGKSLYYYIQQDTKGDYQKALLYLCGGDDYPYDVPDYA	no binding
AnxA2 K28S+D34N+E36S (HA-tagged) (other) MSTVHEILCKLSLEGDHSTPPSAYGSVSAYTNFNASRDALNIETAIKTKGVDEVTIVNILTNRSNAQRQDIAFAYQRRTKKELASALKSALSGHLETVILGLLKTPAQYDASELKASMKGLGTDEDSLIEIICSRTNQELQEINRVYKEMYKTDLEKDIISDTSGDFRKLMVALAKGRRAEDGSVIDYELIDQDARDLYDAGVKRKGTDVPKWISIMTERSVPHLQKVFDRYKSYSPYDMLESIRKEVKGDLENAFLNLVQCIQNKPLYFADRLYDSMKGKGTRDKVLIRIMVSRSEVDMLKIRSEFKRKYGKSLYYYIQQDTKGDYQKALLYLCGGDDYPYDVPDYA	binds
AnxA2 Δ74-88-HA (other) MSTVHEILCKLSLEGDHSTPPSAYGSVKAYTNFDAERDALNIETAIKTKGVDEVTIVNILTNRSNAQRQDIAFSALSGHLETVILGLLKTPAQYDASELKASMKGLGTDEDSLIEIICSRTNQELQEINRVYKEMYKTDLEKDIISDTSGDFRKLMVALAKGRRAEDGSVIDYELIDQDARDLYDAGVKRKGTDVPKWISIMTERSVPHLQKVFDRYKSYSPYDMLESIRKEVKGDLENAFLNLVQCIQNKPLYFADRLYDSMKGKGTRDKVLIRIMVSRSEVDMLKIRSEFKRKYGKSLYYYIQQDTKGDYQKALLYLCGGDDYPYDVPDYA	no binding
AnxA2 Δ62-75-HA (other) MSTVHEILCKLSLEGDHSTPPSAYGSVKAYTNFDAERDALNIETAIKTKGVDEVTIVNILTQRRTKKELASALKSALSGHLETVILGLLKTPAQYDASELKASMKGLGTDEDSLIEIICSRTNQELQEINRVYKEMYKTDLEKDIISDTSGDFRKLMVALAKGRRAEDGSVIDYELIDQDARDLYDAGVKRKGTDVPKWISIMTERSVPHLQKVFDRYKSYSPYDMLESIRKEVKGDLENAFLNLVQCIQNKPLYFADRLYDSMKGKGTRDKVLIRIMVSRSEVDMLKIRSEFKRKYGKSLYYYIQQDTKGDYQKALLYLCGGDDYPYDVPDYA	no binding
AnxA2 Δ25-36-HA (other) MSTVHEILCKLSLEGDHSTPPSAYRDALNIETAIKTKGVDEVTIVNILTNRSNAQRQDIAFAYQRRTKKELASALKSALSGHLETVILGLLKTPAQYDASELKASMKGLGTDEDSLIEIICSRTNQELQEINRVYKEMYKTDLEKDIISDTSGDFRKLMVALAKGRRAEDGSVIDYELIDQDARDLYDAGVKRKGTDVPKWISIMTERSVPHLQKVFDRYKSYSPYDMLESIRKEVKGDLENAFLNLVQCIQNKPLYFADRLYDSMKGKGTRDKVLIRIMVSRSEVDMLKIRSEFKRKYGKSLYYYIQQDTKGDYQKALLYLCGGDDYPYDVPDYA	no binding
AnxA2 Δ37-66-HA (other) MSTVHEILCKLSLEGDHSTPPSAYGSVKAYTNFDAEQRQDIAFAYQRRTKKELASALKSALSGHLETVILGLLKTPAQYDASELKASMKGLGTDEDSLIEIICSRTNQELQEINRVYKEMYKTDLEKDIISDTSGDFRKLMVALAKGRRAEDGSVIDYELIDQDARDLYDAGVKRKGTDVPKWISIMTERSVPHLQKVFDRYKSYSPYDMLESIRKEVKGDLENAFLNLVQCIQNKPLYFADRLYDSMKGKGTRDKVLIRIMVSRSEVDMLKIRSEFKRKYGKSLYYYIQQDTKGDYQKALLYLCGGDDYPYDVPDYA	no binding
AnxA2 80KKELA>GKPLD (HA-tagged) (other, also called 80KKELA84 replaced with AnxA1 loop 89GKPLD93) MSTVHEILCKLSLEGDHSTPPSAYGSVKAYTNFDAERDALNIETAIKTKGVDEVTIVNILTNRSNAQRQDIAFAYQRRTGKPLDSALKSALSGHLETVILGLLKTPAQYDASELKASMKGLGTDEDSLIEIICSRTNQELQEINRVYKEMYKTDLEKDIISDTSGDFRKLMVALAKGRRAEDGSVIDYELIDQDARDLYDAGVKRKGTDVPKWISIMTERSVPHLQKVFDRYKSYSPYDMLESIRKEVKGDLENAFLNLVQCIQNKPLYFADRLYDSMKGKGTRDKVLIRIMVSRSEVDMLKIRSEFKRKYGKSLYYYIQQDTKGDYQKALLYLCGGDDYPYDVPDYA	binds
AnxA2 Δ49-61-HA (other) MSTVHEILCKLSLEGDHSTPPSAYGSVKAYTNFDAERDALNIETAIKTNRSNAQRQDIAFAYQRRTKKELASALKSALSGHLETVILGLLKTPAQYDASELKASMKGLGTDEDSLIEIICSRTNQELQEINRVYKEMYKTDLEKDIISDTSGDFRKLMVALAKGRRAEDGSVIDYELIDQDARDLYDAGVKRKGTDVPKWISIMTERSVPHLQKVFDRYKSYSPYDMLESIRKEVKGDLENAFLNLVQCIQNKPLYFADRLYDSMKGKGTRDKVLIRIMVSRSEVDMLKIRSEFKRKYGKSLYYYIQQDTKGDYQKALLYLCGGDDYPYDVPDYA	no binding
